Laboratory results as given in publication doi:10.1101/2021.09.13.460076.

Target: dimeric human ACE2 fused to Fc domain of human IgG (human) (UniProt Q9BYF1)
Assay: SPR

Chain of dimeric human ACE2 fused to Fc domain of human IgG (human) (Q9BYF1 18-740): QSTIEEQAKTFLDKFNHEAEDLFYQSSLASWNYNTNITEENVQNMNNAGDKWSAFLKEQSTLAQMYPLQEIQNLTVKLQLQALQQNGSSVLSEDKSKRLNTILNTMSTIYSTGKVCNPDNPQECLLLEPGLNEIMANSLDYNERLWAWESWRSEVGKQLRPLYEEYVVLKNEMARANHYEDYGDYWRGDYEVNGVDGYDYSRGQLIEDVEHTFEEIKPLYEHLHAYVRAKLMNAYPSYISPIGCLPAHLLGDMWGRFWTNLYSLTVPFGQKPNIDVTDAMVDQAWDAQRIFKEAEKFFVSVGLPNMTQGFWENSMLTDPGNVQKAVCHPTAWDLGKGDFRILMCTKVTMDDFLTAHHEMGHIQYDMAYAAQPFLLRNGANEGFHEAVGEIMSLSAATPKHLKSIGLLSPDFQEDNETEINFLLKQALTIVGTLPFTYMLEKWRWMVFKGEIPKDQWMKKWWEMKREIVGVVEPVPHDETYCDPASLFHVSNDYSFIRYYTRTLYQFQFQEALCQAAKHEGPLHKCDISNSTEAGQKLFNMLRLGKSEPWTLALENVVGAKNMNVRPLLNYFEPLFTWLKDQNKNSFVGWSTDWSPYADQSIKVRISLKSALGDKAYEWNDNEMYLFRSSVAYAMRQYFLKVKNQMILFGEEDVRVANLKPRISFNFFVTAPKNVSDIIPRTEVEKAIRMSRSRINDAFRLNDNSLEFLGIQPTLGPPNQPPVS

## ADDomer particle decorated with SARS-CoV-2 RBD (ADD-RBD) (from UniProt Q2Y0H9 1-544; P0DTC2 320-554) (complex)
  Kd: 0.309 nM
